# T1: BMPRIb receptor-Fc fusion (UniProt O00238 14-126)
# T1 construct: BMP receptor-Fc fusion used at 5 ug/mL; also called ALK-6
# T1 sequence (looked up): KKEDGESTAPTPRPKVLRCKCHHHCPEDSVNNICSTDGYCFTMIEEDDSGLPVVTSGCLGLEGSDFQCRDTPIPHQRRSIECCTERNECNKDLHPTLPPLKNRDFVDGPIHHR
# T2: BMPRII receptor-Fc fusion (UniProt Q13873 27-151, limits assumed)
# T2 construct: BMP receptor-Fc fusion used at 5 ug/mL
# T2 sequence (looked up): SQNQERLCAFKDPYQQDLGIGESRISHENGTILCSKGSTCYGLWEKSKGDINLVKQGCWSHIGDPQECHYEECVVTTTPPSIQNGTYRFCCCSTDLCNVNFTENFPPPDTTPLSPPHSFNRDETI
# Key:
# Assay in all cases: ELISA-like plate assay, captured BMP-7 from conditioned media, receptor-Fc detection
# [1] = molecular target: T1, BMPRIb receptor-Fc fusion
# [2] = molecular target: T3, ActRIIa receptor-Fc fusion (UniProt P27037 20-134, limits assumed)
# T3 construct: BMP receptor-Fc fusion used at 5 ug/mL
# T3 sequence (P27037 20-134 limits assumed): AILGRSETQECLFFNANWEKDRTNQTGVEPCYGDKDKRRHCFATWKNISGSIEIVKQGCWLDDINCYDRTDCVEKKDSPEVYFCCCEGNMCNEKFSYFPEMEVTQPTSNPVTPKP
# [3] = molecular target: T4, BMPRIa receptor-Fc fusion (UniProt P36894 24-152, limits assumed)
# T4 construct: also called ALK-3
# T4 sequence (P36894 24-152 limits assumed): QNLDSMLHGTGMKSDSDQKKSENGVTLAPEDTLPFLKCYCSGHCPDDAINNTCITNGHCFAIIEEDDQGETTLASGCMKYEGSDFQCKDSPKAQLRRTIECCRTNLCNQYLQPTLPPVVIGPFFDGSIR
# [4] = molecular target: T2, BMPRII receptor-Fc fusion
Binder,BMPRIb binding (relative to wild type = 1.0) [1],ActRIIa binding (relative to wild type = 1.0) [2],BMPRIa binding (relative to wild type = 1.0) [3],BMPRII binding (relative to wild type = 1.0) [4]
"BMP-7 variant F73K (ligand, In conditioned media; numbering on mature BMP-7) STGGKQRSQNRSKTPKNQEALRMASVAENSSSDQRQACKKHELYVSFRDLGWQDWIIAPEGYAAYYCEGECAKPLNSYMNATNHAIVQTLVHFINPETVPKPCCAPTQLNAISVLYFDDSSNVILKKYRNMVVRACGCH",1.14 relative to wild type,0.61 relative to wild type,0.69 relative to wild type,0.38 relative to wild type
"BMP-7 variant L115A (ligand, In conditioned media; numbering on mature BMP-7) STGGKQRSQNRSKTPKNQEALRMASVAENSSSDQRQACKKHELYVSFRDLGWQDWIIAPEGYAAYYCEGECAFPLNSYMNATNHAIVQTLVHFINPETVPKPCCAPTQLNAISVAYFDDSSNVILKKYRNMVVRACGCH",0.17 relative to wild type,,,
"BMP-7 variant F73S (ligand, In conditioned media; numbering on mature BMP-7) STGGKQRSQNRSKTPKNQEALRMASVAENSSSDQRQACKKHELYVSFRDLGWQDWIIAPEGYAAYYCEGECASPLNSYMNATNHAIVQTLVHFINPETVPKPCCAPTQLNAISVLYFDDSSNVILKKYRNMVVRACGCH",0.25 relative to wild type,2.54 relative to wild type,0.9 relative to wild type,2.84 relative to wild type
"BMP-7 variant L21E (ligand, In conditioned media; numbering on mature BMP-7) STGGKQRSQNRSKTPKNQEAERMASVAENSSSDQRQACKKHELYVSFRDLGWQDWIIAPEGYAAYYCEGECAFPLNSYMNATNHAIVQTLVHFINPETVPKPCCAPTQLNAISVLYFDDSSNVILKKYRNMVVRACGCH",0.16 relative to wild type,0.25 relative to wild type,0.12 relative to wild type,
"BMP-7 variant W52P (ligand, In conditioned media; numbering on mature BMP-7) STGGKQRSQNRSKTPKNQEALRMASVAENSSSDQRQACKKHELYVSFRDLGPQDWIIAPEGYAAYYCEGECAFPLNSYMNATNHAIVQTLVHFINPETVPKPCCAPTQLNAISVLYFDDSSNVILKKYRNMVVRACGCH",0.14 relative to wild type,,,
"BMP-7 variant F93A (ligand, In conditioned media; numbering on mature BMP-7) STGGKQRSQNRSKTPKNQEALRMASVAENSSSDQRQACKKHELYVSFRDLGWQDWIIAPEGYAAYYCEGECAFPLNSYMNATNHAIVQTLVHAINPETVPKPCCAPTQLNAISVLYFDDSSNVILKKYRNMVVRACGCH",0.24 relative to wild type,0.11 relative to wild type,0.1 relative to wild type,
"BMP-7 variant L90R (ligand, In conditioned media; numbering on mature BMP-7) STGGKQRSQNRSKTPKNQEALRMASVAENSSSDQRQACKKHELYVSFRDLGWQDWIIAPEGYAAYYCEGECAFPLNSYMNATNHAIVQTRVHFINPETVPKPCCAPTQLNAISVLYFDDSSNVILKKYRNMVVRACGCH",,0.47 relative to wild type,,
"BMP-7 variant F73N (ligand, In conditioned media; numbering on mature BMP-7) STGGKQRSQNRSKTPKNQEALRMASVAENSSSDQRQACKKHELYVSFRDLGWQDWIIAPEGYAAYYCEGECANPLNSYMNATNHAIVQTLVHFINPETVPKPCCAPTQLNAISVLYFDDSSNVILKKYRNMVVRACGCH",0.95 relative to wild type,0.89 relative to wild type,0.51 relative to wild type,0.85 relative to wild type
"BMP-7 variant S77H (ligand, In conditioned media; numbering on mature BMP-7) STGGKQRSQNRSKTPKNQEALRMASVAENSSSDQRQACKKHELYVSFRDLGWQDWIIAPEGYAAYYCEGECAFPLNHYMNATNHAIVQTLVHFINPETVPKPCCAPTQLNAISVLYFDDSSNVILKKYRNMVVRACGCH",0.3 relative to wild type,0.42 relative to wild type,0.29 relative to wild type,
"BMP-7 variant F73E (ligand, In conditioned media; numbering on mature BMP-7) STGGKQRSQNRSKTPKNQEALRMASVAENSSSDQRQACKKHELYVSFRDLGWQDWIIAPEGYAAYYCEGECAEPLNSYMNATNHAIVQTLVHFINPETVPKPCCAPTQLNAISVLYFDDSSNVILKKYRNMVVRACGCH",1.23 relative to wild type,1.87 relative to wild type,0.55 relative to wild type,1.77 relative to wild type
"BMP-7 variant F117S (ligand, In conditioned media; numbering on mature BMP-7) STGGKQRSQNRSKTPKNQEALRMASVAENSSSDQRQACKKHELYVSFRDLGWQDWIIAPEGYAAYYCEGECAFPLNSYMNATNHAIVQTLVHFINPETVPKPCCAPTQLNAISVLYSDDSSNVILKKYRNMVVRACGCH",,0.11 relative to wild type,0.15 relative to wild type,

# The next lines start with the values.
BMPRIb binding (relative to wild type = 1.0) [1],ActRIIa binding (relative to wild type = 1.0) [2],BMPRIa binding (relative to wild type = 1.0) [3],BMPRII binding (relative to wild type = 1.0) [4],Binder
0.42 relative to wild type,0.86 relative to wild type,0.34 relative to wild type,1.25 relative to wild type,"BMP-7 variant E60H (ligand, In conditioned media; numbering on mature BMP-7) STGGKQRSQNRSKTPKNQEALRMASVAENSSSDQRQACKKHELYVSFRDLGWQDWIIAPHGYAAYYCEGECAFPLNSYMNATNHAIVQTLVHFINPETVPKPCCAPTQLNAISVLYFDDSSNVILKKYRNMVVRACGCH"
1.71 relative to wild type,1.87 relative to wild type,1.05 relative to wild type,2.85 relative to wild type,"BMP-7 variant F73Q (ligand, In conditioned media; numbering on mature BMP-7) STGGKQRSQNRSKTPKNQEALRMASVAENSSSDQRQACKKHELYVSFRDLGWQDWIIAPEGYAAYYCEGECAQPLNSYMNATNHAIVQTLVHFINPETVPKPCCAPTQLNAISVLYFDDSSNVILKKYRNMVVRACGCH"
0.64 relative to wild type,2.5 relative to wild type,0.33 relative to wild type,3.05 relative to wild type,"BMP-7 variant F73D (ligand, In conditioned media; numbering on mature BMP-7) STGGKQRSQNRSKTPKNQEALRMASVAENSSSDQRQACKKHELYVSFRDLGWQDWIIAPEGYAAYYCEGECADPLNSYMNATNHAIVQTLVHFINPETVPKPCCAPTQLNAISVLYFDDSSNVILKKYRNMVVRACGCH"
0.23 relative to wild type,,0.1 relative to wild type,,"BMP-7 variant W55A (ligand, In conditioned media; numbering on mature BMP-7) STGGKQRSQNRSKTPKNQEALRMASVAENSSSDQRQACKKHELYVSFRDLGWQDAIIAPEGYAAYYCEGECAFPLNSYMNATNHAIVQTLVHFINPETVPKPCCAPTQLNAISVLYFDDSSNVILKKYRNMVVRACGCH"
0.53 relative to wild type,0.94 relative to wild type,0.47 relative to wild type,1.01 relative to wild type,"BMP-7 variant E60P (ligand, In conditioned media; numbering on mature BMP-7) STGGKQRSQNRSKTPKNQEALRMASVAENSSSDQRQACKKHELYVSFRDLGWQDWIIAPPGYAAYYCEGECAFPLNSYMNATNHAIVQTLVHFINPETVPKPCCAPTQLNAISVLYFDDSSNVILKKYRNMVVRACGCH"
,0.34 relative to wild type,0.45 relative to wild type,,"BMP-7 variant R48E (ligand, In conditioned media; numbering on mature BMP-7) STGGKQRSQNRSKTPKNQEALRMASVAENSSSDQRQACKKHELYVSFEDLGWQDWIIAPEGYAAYYCEGECAFPLNSYMNATNHAIVQTLVHFINPETVPKPCCAPTQLNAISVLYFDDSSNVILKKYRNMVVRACGCH"
